The target in test [1] is soluble human BLyS (human) (UniProt Q9Y275). Kind of test: cell-based or functional assay.
The target in test [2] is soluble mouse BLyS (mouse) (UniProt Q9WU72). Kind of test: cell-based or functional assay.

The record followed here is patent US20170101466A1.

B1: 14F11 IgG expressed in HEK293 cells (antibody, V domains shown)
VH: QVQLVQSGAEVKKPGSSVKVSCKASGGTFSSYAISWVRQAPGQGLEWMGRINPNSGGTNYAQKFQGRVTMTRDTSISTAYMELSRLRSDDTFVYYCAREGYDFLTGYTLGGMDVWGQGTTVTVSS
VL: QSVLTQPPSVSAAPGQKVTISCSGSSSNIGNNYVSWYQQLPGTAPKLLIYDNNKRPSGIPDRFSASKSGTSASLAISGLQAEDEADYYCQSYDSSLSGVVFGGGTKLTVLG
Regarding B1, the hBLyS B-cell proliferation (IC50) in test [1] was 12.

B2: human TACI (immunoglobulin fusion) (Fc fusion, part only; not given: immunoglobulin part, UniProt O14836 30-110, looked up, part only)
chain, part: AMRSCPEEQYWDPLLGTCMSCKTICNHQSQRTCAAFCRSLSCRKEQGKFYDHLLRDCISCASICGQHPKQCAYFCENKLRS
In test [2], B2 showed an IC50 mBLyS stimulated, mouse splenic B-cell proliferation of 7 ng/mL. In test [1], the IC50 hBLyS stimulated, mouse splenic B-cell proliferation was 7 ng/mL.
